Source: IntAct's records for PubMed 15086532

B1: Delta-type opioid receptor (Homo sapiens), P41143 (parent)
chain: MEPAPSAGAELQPPLFANASDAYPSACPSAGANASGPPGARSASSLALAIAITALYSAVCAVGLLGNVLVMFGIVRYTKMKTATNIYIFNLALADALATSTLPFQSAKYLMETWPFGELLCKAVLSIDYYNMFTSIFTLTMMSVDRYIAVCHPVKALDFRTPAKAKLINICIWVLASGVGVPIMVMAVTRPRDGAVVCMLQFPSPSWYWDTVTKICVFLFAFVVPILIITVCYGLMLLRLRSVRLLSGSKEKDRSLRRITRMVLVVVGAFVVCWAPIHIFVIVWTLVDIDRRDPLVVAALHLCIALGYANSSLNPVLYAFLDENFKRCFRQLCRKPCGRPDPSSFSRAREATARERVTACTPSDGPGGGAAA

Variants of: B1
Settings: with gasp1_human GPRASP1, Q5JY77
Sequence of gasp1_human GPRASP1, Q5JY77 (Q5JY77 whole entry): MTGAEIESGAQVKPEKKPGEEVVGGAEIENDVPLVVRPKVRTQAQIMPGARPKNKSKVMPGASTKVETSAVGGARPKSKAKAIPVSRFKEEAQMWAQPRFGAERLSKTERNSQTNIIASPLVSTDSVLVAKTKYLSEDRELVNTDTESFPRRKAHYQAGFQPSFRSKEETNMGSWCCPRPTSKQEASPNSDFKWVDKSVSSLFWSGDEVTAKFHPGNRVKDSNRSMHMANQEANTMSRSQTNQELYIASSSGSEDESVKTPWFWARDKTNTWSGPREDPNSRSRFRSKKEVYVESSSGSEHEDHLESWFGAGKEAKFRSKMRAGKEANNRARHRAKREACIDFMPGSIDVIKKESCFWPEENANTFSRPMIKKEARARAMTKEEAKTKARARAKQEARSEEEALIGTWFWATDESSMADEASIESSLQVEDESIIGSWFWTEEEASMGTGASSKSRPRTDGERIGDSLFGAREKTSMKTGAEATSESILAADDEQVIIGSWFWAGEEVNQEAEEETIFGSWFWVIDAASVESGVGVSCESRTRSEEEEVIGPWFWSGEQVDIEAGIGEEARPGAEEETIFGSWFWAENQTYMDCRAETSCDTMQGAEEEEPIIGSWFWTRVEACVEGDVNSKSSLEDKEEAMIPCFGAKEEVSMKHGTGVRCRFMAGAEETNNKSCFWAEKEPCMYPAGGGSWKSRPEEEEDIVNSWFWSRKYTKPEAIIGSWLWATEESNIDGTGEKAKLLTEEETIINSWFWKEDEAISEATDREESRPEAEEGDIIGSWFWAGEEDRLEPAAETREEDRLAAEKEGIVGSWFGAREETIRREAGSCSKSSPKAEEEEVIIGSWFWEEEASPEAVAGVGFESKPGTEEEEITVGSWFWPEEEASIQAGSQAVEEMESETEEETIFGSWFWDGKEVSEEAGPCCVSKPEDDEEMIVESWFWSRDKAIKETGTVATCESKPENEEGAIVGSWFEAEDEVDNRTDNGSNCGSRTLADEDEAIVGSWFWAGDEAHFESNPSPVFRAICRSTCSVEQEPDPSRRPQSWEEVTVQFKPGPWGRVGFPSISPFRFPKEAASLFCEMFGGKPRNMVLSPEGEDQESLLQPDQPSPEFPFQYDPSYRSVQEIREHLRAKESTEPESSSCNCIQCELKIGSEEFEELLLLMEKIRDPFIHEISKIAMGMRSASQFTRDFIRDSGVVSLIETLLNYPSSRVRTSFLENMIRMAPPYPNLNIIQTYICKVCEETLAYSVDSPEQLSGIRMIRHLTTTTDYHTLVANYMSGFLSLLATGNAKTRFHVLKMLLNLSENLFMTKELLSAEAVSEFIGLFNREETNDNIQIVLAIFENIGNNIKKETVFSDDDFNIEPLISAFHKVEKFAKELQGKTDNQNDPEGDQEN

Row | Variant | effect of a mutation on the interaction
1 | F325A;K326A | decreasing interaction
